Measured values: PMC8754118, “The PqsE-RhlR Interaction Regulates RhlR DNA Binding to Control Virulence Factor Production in Pseudomonas aeruginosa” (Microbiology Spectrum, 2022)

B1: RhlR bound to meta-bromo-thiolactone (RhlR:mBTL) (receptor)
chain: MRNDGGFLLWWDGLRSEMQPIHDSQGVFAVLEKEVRRLGFDYYAYGVRHTIPFTRPKTEVHGTYPKAWLERYQMQNYGAVDPAILNGLRSSEMVVWSDSLFDQSRMLWNEARDWGLCVGATLPIRAPNNLLSVLSVARDQQNISSFEREEIRLRLRCMIELLTQKLTDLEHPMLMSNPVCLSHREREILQWTADGKSSGEIAIILSISESTVNFHHKNIQKKFDAPNKTLAAAYAAALGLI

Experiments:
[1] = tested on: RhlR:mBTL;PqsE (Pseudomonas aeruginosa;Pseudomonas aeruginosa); assay: EMSA; settings: scale: fold higher affinity than RhlR:mBTL alone
[2] = target: 6x-His-PqsE (wild type) (P. aeruginosa, UniProt P20581 1-301); assay: cell-based or functional assay
[3] = target: 6x-His-PqsE(E182W) (P. aeruginosa, UniProt P20581 1-301, E182W); assay: cell-based or functional assay
[4] = target: 6x-His-PqsE(E182W/S285W) (P. aeruginosa, UniProt P20581 1-301, E182W | S285W); assay: cell-based or functional assay

Molecule	binding signal [1]	bioluminescence from prhlA-luxCDABE in E. coli carrying rhlR and pqsE, 500 nM C4HSL, against the strain lacking PqsE [2] [fold]	bioluminescence from prhlA-luxCDABE in E. coli carrying rhlR and pqsE(E182W), 500 nM C4HSL, against the no-PqsE control strain [3] [fold]	bioluminescence from prhlA-luxCDABE in E. coli carrying rhlR and pqsE(E182W/S285W), 500 nM C4HSL, against the no-PqsE control strain [4] [fold]
rhlA promoter EMSA probe	5			
B1		42	~11	~11
